Measurements from PMC6852375 (The Febs Journal, 2019).
Residue numbers refer to the chain shown, from its start.

T1: Murine RANK-Fc (mouse, UniProt O35305 31-214)
T1 sequence (looked up): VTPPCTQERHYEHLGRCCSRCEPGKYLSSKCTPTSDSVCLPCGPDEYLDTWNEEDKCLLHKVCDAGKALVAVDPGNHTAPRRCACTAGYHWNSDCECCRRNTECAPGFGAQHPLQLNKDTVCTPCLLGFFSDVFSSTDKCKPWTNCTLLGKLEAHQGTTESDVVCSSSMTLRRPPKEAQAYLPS

T2: Murine OPG-Fc (mouse, UniProt O08712 22-401)
T2 sequence (looked up): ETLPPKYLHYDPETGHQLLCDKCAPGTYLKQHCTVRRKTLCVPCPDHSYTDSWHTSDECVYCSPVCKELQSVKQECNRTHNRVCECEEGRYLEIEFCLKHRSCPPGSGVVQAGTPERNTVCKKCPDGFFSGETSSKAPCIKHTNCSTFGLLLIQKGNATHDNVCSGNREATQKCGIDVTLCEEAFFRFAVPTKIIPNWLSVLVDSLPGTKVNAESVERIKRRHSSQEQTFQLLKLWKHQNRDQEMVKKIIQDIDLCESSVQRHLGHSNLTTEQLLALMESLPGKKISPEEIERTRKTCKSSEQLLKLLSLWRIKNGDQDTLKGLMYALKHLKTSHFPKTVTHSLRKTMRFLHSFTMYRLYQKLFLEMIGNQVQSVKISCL

B1: RANKL_WT (mouse soluble RANKL, aa 160–316) (ligand, UniProt O35235 160-316, looked up)
chain: EAQPFAHLTINAASIPSGSHKVTLSSWYHDRGWAKISNMTLSNGKLRVNQDGFYYLYANICFRHHETSGSVPTDYLQLMVYVVKTSIKIPSSHNLMKGGSTKNWSGNSEFHFYSINVGGFFKLRAGEEISIQVSNPSLLDPDQDATYFGAFKVQDID
B2: RANKL_Q236P (ligand, mouse, UniProt O35235 160-316, looked up)
chain: B1 chain with Q77P
B3: RANKL_Q236D (ligand, mouse, UniProt O35235 160-316, looked up)
chain: B1 chain with Q77D
B4: RANKL_Q236N (ligand, mouse, UniProt O35235 160-316, looked up)
chain: B1 chain with Q77N
B5: RANKL_Q236A (ligand, mouse, UniProt O35235 160-316, looked up)
chain: B1 chain with Q77A
B6: RANKL_Q236H (ligand, mouse, UniProt O35235 160-316, looked up)
chain: B1 chain with Q77H
B7: RANKL_Q236S (ligand, mouse, UniProt O35235 160-316, looked up)
chain: B1 chain with Q77S
B8: RANKL_Q236K (ligand, mouse, UniProt O35235 160-316, looked up)
chain: B1 chain with Q77K

What follows are binders tested against T1, Murine RANK-Fc (assay: SPR).

Row | Kd | koff | kon | Binder
1 | 0.0119 ± 0.0015 nM | 0.0001 s⁻¹ | 8.4e+06 M⁻¹ s⁻¹ | B1
2 | 0.0198 ± 0.006 nM | 0.00012 s⁻¹ | 6.1e+06 M⁻¹ s⁻¹ | B2
3 | 0.015 ± 0.0032 nM | 9e-05 s⁻¹ | 6.4e+06 M⁻¹ s⁻¹ | B3
4 | 0.0221 ± 0.0029 nM | 0.00017 s⁻¹ | 7.9e+06 M⁻¹ s⁻¹ | B4
5 | 0.0215 ± 0.0066 nM | 0.00018 s⁻¹ | 8.9e+06 M⁻¹ s⁻¹ | B5
6 | 0.0187 ± 0.0028 nM | 0.00013 s⁻¹ | 6.7e+06 M⁻¹ s⁻¹ | B6
7 | 0.0249 ± 0.0051 nM | 0.00018 s⁻¹ | 7e+06 M⁻¹ s⁻¹ | B7
8 | 0.119 ± 0.0105 nM | 0.00095 s⁻¹ | 8e+06 M⁻¹ s⁻¹ | B8

What follows are binders tested against T2, Murine OPG-Fc (assay: SPR).

Row | Kd | koff | kon | Binder
9 | 0.0043 ± 0.0016 nM | 7e-05 s⁻¹ | 1.8e+07 M⁻¹ s⁻¹ | B1
10 | 0.0213 ± 0.0082 nM | 0.00022 s⁻¹ | 1.1e+07 M⁻¹ s⁻¹ | B2
11 | 0.112 ± 0.0244 nM | 0.0007 s⁻¹ | 6e+06 M⁻¹ s⁻¹ | B3
12 | 0.0207 ± 0.0037 nM | 0.00031 s⁻¹ | 1.5e+07 M⁻¹ s⁻¹ | B4
13 | 0.0205 ± 0.0022 nM | 0.00033 s⁻¹ | 1.6e+07 M⁻¹ s⁻¹ | B5
14 | 0.0166 ± 0.0016 nM | 0.00022 s⁻¹ | 1.3e+07 M⁻¹ s⁻¹ | B6
15 | 0.0233 ± 0.0045 nM | 0.00031 s⁻¹ | 1.4e+07 M⁻¹ s⁻¹ | B7
16 | 0.143 ± 0.0446 nM | 0.00146 s⁻¹ | 1.1e+07 M⁻¹ s⁻¹ | B8

The binders below were run against T2, Murine OPG-Fc (assay: ELISA).

Row | binding relative to RANKL_WT | Binder
17 | 25% | B3
